According to patent US20240228562A1, “NOVEL LIPOCALIN MUTEINS SPECIFIC FOR CONNECTIVE TISSUE GROWTH FACTOR (CTGF)” (PIERIS PHARMACEUTICALS GMBH, priority 2021, published 2024):

T1: Rat CTGF (Rattus norvegicus, UniProt Q9R1E9)
T1 construct: purchased R&D Systems
T1 sequence (Q9R1E9 25-347): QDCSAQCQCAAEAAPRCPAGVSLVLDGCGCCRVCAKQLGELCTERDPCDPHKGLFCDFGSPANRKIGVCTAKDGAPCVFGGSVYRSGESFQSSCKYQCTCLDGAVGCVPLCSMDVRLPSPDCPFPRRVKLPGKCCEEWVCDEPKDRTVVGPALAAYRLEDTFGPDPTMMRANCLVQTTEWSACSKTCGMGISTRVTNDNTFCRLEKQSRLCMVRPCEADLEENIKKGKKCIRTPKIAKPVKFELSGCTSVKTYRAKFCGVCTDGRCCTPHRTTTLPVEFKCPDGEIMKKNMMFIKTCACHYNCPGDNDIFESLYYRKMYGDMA

T2: Murine CTGF (Mus musculus, UniProt P29268)
T2 construct: purchased Abbexa
T2 sequence (P29268 26-348): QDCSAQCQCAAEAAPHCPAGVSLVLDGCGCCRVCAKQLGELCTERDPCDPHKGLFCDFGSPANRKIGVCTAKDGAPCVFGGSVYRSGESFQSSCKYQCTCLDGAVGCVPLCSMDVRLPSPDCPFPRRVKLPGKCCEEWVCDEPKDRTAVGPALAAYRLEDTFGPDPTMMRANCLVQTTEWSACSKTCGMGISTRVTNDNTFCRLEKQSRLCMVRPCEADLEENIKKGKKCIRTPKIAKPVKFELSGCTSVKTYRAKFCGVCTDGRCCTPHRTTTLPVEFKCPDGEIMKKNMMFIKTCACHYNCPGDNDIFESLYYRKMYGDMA


Legend:
Rat CTGF = target: T1, Rat CTGF; assay: SPR binding kinetics and affinity, rat CTGF; design: key to Rat CTGF kon / Rat CTGF koff / Rat CTGF KD: B binding without determination of kinetics constants; details: 25° C., 1:1 binding model
Description: (§1) Surface plasmon resonance (SPR) was used to measure binding kinetics and affinity of the representative lipocalin muteins disclosed herein.
(§2) The binding of exemplary lipocalin muteins to human (Creative Biomart), cynomolgus, rat (R&D Systems) and mouse CTGF (Abbexa) was determined by SPR using a Biacore instrument (Cytiva, formerly GE Healthcare). Some targets were fused to a human IgG1 Fc tag, and captured via the anti-human IgG antibody kit, others were directly immobilized.
(§3) For some measurements, human CTGF with a human IgG1 Fc Tag or rat or murine CTGF without a tag were directly immobilized to a CM5 Chip. The carboxyl groups on the chip were activated using 1-ethyl-3-(3-dimethylaminopropyl)-carbodiimide (EDC) and N-hydroxysuccinimide (NHS). Subsequently, the targets at a concentration of 3-5 μg/mL in 10 mM sodium acetate (pH) 4.5 were applied at a flow rate of 10 μL/min until an immobilization level of 300-1100 resonance units was achieved. Residual non-reacted NHS-esters were blocked by passing a solution of 1 M ethanolamine across the surface. The reference channel was activated/deactivated. For the capture setting, targets with an IgG Fc Tag at 0.25-2.5 μg/mL in HBS-EP+ buffer were captured by the anti-human IgG-Fc antibody at the chip surface for 180 s at a flow rate of 10 μL/min.
(§4) The binding assay was carried out with a contact time of 180 s, a dissociation time of 900-3600 s and a flow rate of 30 μL/min. All measurements were performed at 25° C. […] For the directly immobilized targets, the same regeneration conditions were used. Prior to the protein measurements, three startup cycles were performed for conditioning purposes. Data were evaluated with Biacore Evaluation software. Double referencing was used and the 1:1 binding model was used to fit the raw data.
(§5) The values determined for kon, koff and the resulting equilibrium dissociation constant (KD) for exemplary lipocalin muteins are summarized in Table 4.

[1] = Thermal stability assessment by nanoDSC; format: physicochemical; details: 1 mg/mL in PBS, scan 25-100° C. at 1° C./min; for TM: major transition
Description: To determine the melting temperatures (Tms) of the lipocalin muteins, which is a general indicator for folding stability, the CTGF specific muteins, at a protein concentration of 1 mg/mL in PBS (Gibco), were scanned (25-100° C.) at 1° C./min using a capillary nanoDSC instrument (CSC 6300, TA Instruments). […] Several unfolding events can contribute to the observed thermogram. In cases with multiple transitions, the one with the major unfolding energy best represents the overall protein fold and is reported. Muteins were produced as described in Example 3. SEQ ID NOs: 3, 7, 9, 25, and 29 were expressed using E. coli, the other muteins were expressed using CHO cells.
The resulting maximum melting temperatures as well as the onset temperature of melting for exemplary lipocalin muteins and fusion proteins are listed in Table 3 below.

human CTGF [2] = target: T3, human CTGF (Homo sapiens, UniProt P29279, H83D); assay: SPR binding kinetics and affinity, human CTGF; details: 25° C., 1:1 binding model
T3 construct: purchased Creative Biomart
Description: as §1, §2, §3, §4

human CTGF [3] = target: T4, human CTGF (Homo sapiens, UniProt P29279); assay: SPR binding kinetics and affinity, human CTGF; details: 25° C., 1:1 binding model
T4 construct: purchased Creative Biomart
Description: as §1, §2, §3, §4

Murine CTGF = target: T2, Murine CTGF; assay: SPR binding kinetics and affinity, murine CTGF; design: key to Murine CTGF kon / Murine CTGF koff / Murine CTGF KD: B binding without determination of kinetics constants; details: 25° C., 1:1 binding model
Description: as §1, §2, §3, §4, §5

cynomolgus CTGF = assay: SPR binding kinetics and affinity, cynomolgus CTGF; details: 25° C., 1:1 binding model
Description: as §1, §2, §3, §4, §5

T3 sequence (P29279 with tags, fused parts or gaps H83D): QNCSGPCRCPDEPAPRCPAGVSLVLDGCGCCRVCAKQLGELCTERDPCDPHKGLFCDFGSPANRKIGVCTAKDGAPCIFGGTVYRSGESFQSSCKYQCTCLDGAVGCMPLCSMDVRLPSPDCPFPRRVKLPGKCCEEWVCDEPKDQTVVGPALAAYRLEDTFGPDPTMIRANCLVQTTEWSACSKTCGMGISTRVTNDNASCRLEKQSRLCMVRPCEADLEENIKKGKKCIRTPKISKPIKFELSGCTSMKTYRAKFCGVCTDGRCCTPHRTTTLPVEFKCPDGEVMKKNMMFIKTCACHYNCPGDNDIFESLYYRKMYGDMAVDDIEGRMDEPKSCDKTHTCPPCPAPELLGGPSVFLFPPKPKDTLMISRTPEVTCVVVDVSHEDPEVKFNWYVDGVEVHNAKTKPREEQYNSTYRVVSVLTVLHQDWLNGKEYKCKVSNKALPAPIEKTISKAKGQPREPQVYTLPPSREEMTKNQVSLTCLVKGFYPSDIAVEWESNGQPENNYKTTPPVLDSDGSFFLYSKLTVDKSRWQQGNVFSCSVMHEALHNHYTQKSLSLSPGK
T4 sequence (P29279 with tags, fused parts or gaps H83D): as above
Sequence of cynomolgus CTGF (as listed by the source): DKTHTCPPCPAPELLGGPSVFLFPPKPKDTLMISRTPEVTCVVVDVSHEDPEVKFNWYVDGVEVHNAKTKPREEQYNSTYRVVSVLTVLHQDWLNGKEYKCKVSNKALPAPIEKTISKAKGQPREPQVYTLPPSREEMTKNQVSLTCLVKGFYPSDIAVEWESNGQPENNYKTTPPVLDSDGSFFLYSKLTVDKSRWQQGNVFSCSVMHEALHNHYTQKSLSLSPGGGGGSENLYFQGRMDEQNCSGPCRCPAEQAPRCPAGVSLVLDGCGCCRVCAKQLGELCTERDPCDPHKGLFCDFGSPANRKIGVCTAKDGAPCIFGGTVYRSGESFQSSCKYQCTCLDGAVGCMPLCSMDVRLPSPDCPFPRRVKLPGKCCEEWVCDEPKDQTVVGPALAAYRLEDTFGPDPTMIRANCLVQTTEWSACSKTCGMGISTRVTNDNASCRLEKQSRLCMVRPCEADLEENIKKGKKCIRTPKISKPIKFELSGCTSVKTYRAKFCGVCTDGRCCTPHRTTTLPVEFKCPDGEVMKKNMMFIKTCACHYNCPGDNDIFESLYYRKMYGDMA

Row | Rat CTGF koff (Rat CTGF) | Rat CTGF kon (Rat CTGF) | human CTGF kon (human CTGF [2]) | human CTGF koff (human CTGF [3]) | Murine CTGF KD (Murine CTGF) | Murine CTGF koff (Murine CTGF) | Murine CTGF kon (Murine CTGF) | Rat CTGF KD (Rat CTGF) | cynomolgus CTGF koff (cynomolgus CTGF) | cynomolgus CTGF kon (cynomolgus CTGF) | Molecule | ONSET MELTING [1] | TM [1]
1 | 4.01e-05 s⁻¹ | 181000 M⁻¹ s⁻¹ | 142000 M⁻¹ s⁻¹ | 8.05e-06 s⁻¹ | B | B | B | – | – | – | SEQ ID NO: 22: optimized CTGF-binding hNGAL lipocalin mutein (protein, lipocalin mutein) QDSTSDLIPAPPLSKVPLQQNFQDNQFQGKWYVVGIAGNAILRVDKQPAKMFATIYELKEDKSYDVTSVRFEAKSCVYTIKTFVPGSQPGEFTAGNIKSAPGQTSTLVRVVSTNYNQHAMVFFKHVSQNREIFVITLYGRTKELTSELKENFIRFSKSLGLPENHIVFPVPIDQCIDG | 59 °C | 73 °C
2 | B | B | 290000 M⁻¹ s⁻¹ | 0.000149 s⁻¹ | B | B | B | B | – | – | SEQ ID NO: 6: optimized CTGF-binding hNGAL lipocalin mutein (protein, lipocalin mutein) QDSTSDLIPAPPLSKVPLQQNFQDNQFQGKWYVVGRAGNNQLREDKSPPKMWATIYELKEDKSYDVTHVHFSTKKCRYIIDTFVPGSQPGEFTAGAIKSGPGLTSPLVRVVSTNYNQHAMVFFKWVTQNREWFTITLYGRTKELTSELKENFIRFSKSLGLPENHIVFPVPIDQCIDG | 48 °C | 66 °C
3 | 6.3e-05 s⁻¹ | 279000 M⁻¹ s⁻¹ | 172000 M⁻¹ s⁻¹ | 1.71e-05 s⁻¹ | – | 5.29e-05 s⁻¹ | 176000 M⁻¹ s⁻¹ | – | – | – | SEQ ID NO: 33: optimized CTGF-binding hNGAL lipocalin mutein (protein, lipocalin mutein) QDSTSDLIPAPPLSKVPLQQNFQDNQFQGKWYVVGWAGNAKLREDKQPFKMSATIYELKEDKSYDVTEVVFEQKKCHYIIKTFVPGSQPGEFTEGNYKRRPRLWSDLVRVVSTNYNQHAMVFFKKVHQNREFFWITLYGRTKELTSELKENFIRFSKSLGLPENHIVFPVPIDQCIDG | 56 °C | 72 °C
4 | 4.08e-05 s⁻¹ | 88800 M⁻¹ s⁻¹ | 67700 M⁻¹ s⁻¹ | 2.23e-06 s⁻¹ | B | B | B | – | – | – | SEQ ID NO: 10: optimized CTGF-binding hNGAL lipocalin mutein (protein, lipocalin mutein) QDSTSDLIPAPPLSKVPLQQNFQDNQFQGKWYVVGLAGNAILREDKQPAKMFATIYELKEDKSYDVTSVRFEAKSCSYTIKTFVPGSQPGEFTAGNIKSAPGQTSTLVRVVSTNYNQHAMVFWKSVAGTRESFNIALYGRTKELTSELKENFIRFSKSLGLPENHIVFPVPIDQCIDG | 50 °C | 66 °C
5 | – | – | 109000 M⁻¹ s⁻¹ | 6.39e-05 s⁻¹ | – | 0.000264 s⁻¹ | 133000 M⁻¹ s⁻¹ | – | – | – | SEQ ID NO: 32: optimized CTGF-binding hNGAL lipocalin mutein (protein, lipocalin mutein) QDSTSDLIPAPPLSKVPLQQNFQDNQFQGKWYVVGWAGNVKLREDKQPFKMSATIYELKEDKSYDVTEVVFEQKKCHYIIKTFVPGSQPGEFTLSPISSSPGLVSHLVRVVSTNYNQHAMVFFKKVHQNREFFWITLYGRTKELTSELKENFIRFSKSLGLPENHIVFPVPIDQCIDG | 62 °C | 79 °C
6 | – | – | 150000 M⁻¹ s⁻¹ | 0.000169 s⁻¹ | – | 0.00286 s⁻¹ | 240000 M⁻¹ s⁻¹ | – | 0.000238 s⁻¹ | 139000 M⁻¹ s⁻¹ | SEQ ID NO: 34: optimized CTGF-binding hNGAL lipocalin mutein (protein, lipocalin mutein) QDSTSDLIPAPPLSKVPLQQNFQDNQFQGKWYVVGWAGNVILREDKQPFKMSATIYELKEDKSYDVTEVVFEQKKCHYIIKTFVPGSQPGEFTLGDIKSPPGETSTLVRVVSTNYNQHAMVFFKKVSQNREFFWITLYGRTKELTSELKENFIRFSKSLGLPENHIVFPVPIDQCIDG | 67 °C | 82 °C
7 | 0.000273 s⁻¹ | 193000 M⁻¹ s⁻¹ | 108000 M⁻¹ s⁻¹ | 5.94e-05 s⁻¹ | – | 0.000287 s⁻¹ | 128000 M⁻¹ s⁻¹ | – | – | – | SEQ ID NO: 35: optimized CTGF-binding hNGAL lipocalin mutein (protein, lipocalin mutein) QDSTSDLIPAPPLSKVPLQQNFQDNQFQGKWYVVGWAGNVKLREDKQPLKMSATIYELKEDKSYDVTEVVFEQKKCHYIIKTFVPGSQPGEFTAGDIKSPPGYTSSLVRVVSTNYNQHAMVFFKKVSQNREFFWITLYGRTKELTSELKENFIRFSKSLGLPENHIVFPVPIDQCIDG | 63 °C | 78 °C
8 | 0.000362 s⁻¹ | 294000 M⁻¹ s⁻¹ | 211000 M⁻¹ s⁻¹ | 6.65e-05 s⁻¹ | B | B | B | – | – | – | SEQ ID NO: 5: optimized CTGF-binding hNGAL lipocalin mutein (protein, lipocalin mutein) QDSTSDLIPAPPLSKVPLQQNFQDNQFQGKWYVVGKAGNALREDKEPPKMWATIYELKEDKSYDVTHVHFLTKKCKYLIDTFVPGSQPGEFTIGAIKSGPGLTSPLVRVVSTNYNQHAMVFFKWVSQNREWFTITLYGRTKELTSELKENFIRFSKSLGLPENHIVFPVPIDQCIDG | 52 °C | 66 °C
